# Measurements as given in PMC9526445.
# Biological target: SpPks1 (sea urchin polyketide synthase, Strongylocentrotus purpuratus) (Strongylocentrotus purpuratus)
# Assay: SEC
substance,measurement,value
"SpPks1 (sea urchin polyketide synthase, Strongylocentrotus purpuratus) (enzyme)",stoichiometry N,2
